Assay results: paper PMC10011724

Target: Flag-tagged BPGAP1
Assay: co-immunoprecipitation (anti-Flag M2 beads) with immunoblot quantification
Settings: HEK293T cell lysates; three independent experiments; parent: est. 1.0; read off a plot

ratio to parent [fold change] | Substance
2.2 | HA-tagged Rac1, wild-type (WT) (from UniProt P63000) T17N
0.72 | HA-tagged Rac1, wild-type (WT) (from UniProt P63000) G12V
